The values below are quoted from earlier work in paper PMC5956149.

The target in this data set is CheA (Escherichia coli) (UniProt P07363). The conditions noted are these: cited from earlier work.

As to CheA (from UniProt P07363), the Kd is 400 nM.

One may read the Kd as the free concentration of one partner at which half of the binding sites on the other are occupied at equilibrium, for simple one-to-one binding.
